{"source": "the DeepSol protein solubility set", "data": [{"experiment": "soluble on expression in E. coli; label from the status in PepcDB or PDB records", "values": [{"sequence": "MLYQPSLLKSRLTPAPPGFSFQPQPLLNSDMDPVRNLESLGNYTVYQDSSQCFWQHQNFTSNREHNPALRKTKICDHWRRSGSCSYGDACWYAHGEDDLRKVVRIDRSNEEENERPATAEIQKSPTKRASTNVKGLTVNIPSNTAFKEQNSSMPLSPAQERWISMSIGAVPPPTSSAAEKDAISSLSKNGVEQEQEKKHEICSRDDDIDDYGFLSPNPFPYPQQSMFSAGFPSHGHHQRSSNRATQGVPSQQFGGPVNIPGQDPNRLGSGAYHIPPQHQRSRSNVRTSREVGGPPPQFQQAIWNVAGEIYQRQKDIEIGGQRVGPNDRQPTQQKNSEMDRLLSKLKMKDLNYLRFMIERGYINERDVSRQTSSDQMSNGHHFNAPMTPPYHPRLAGNEPNTSDCHYHGTGNRLSNFMPGRHRPPHQHPIHHHHQSQHQLHQHQQYLHHAAQQYRYSHQQGPQHPFAALLSPPEISESLLPPDDSFSIWLEPKPKKQSGAMTRTRGAATINESSSAASLLTKMDALRSDKYPITDEEMMMANDFVRQGDRDDKLSSSESSSPVVMSLMELLSNENLLDQVATEKPKCSMFDFDTLKIAETLKEPLQSSECSTTTSSKMTCSPMFFFVDEKTPNYDGSGSKSLFTPSSSAGQTPSFLEPCDFFAATGSCPFGDACHQSHSI", "soluble on expression in E. coli": "not soluble"}, {"sequence": "MMAEFETVNDVKQLNGLALAYIGDAVYEVYVRRHLLAGGSVRPHELHRRAVRYVSARAQARVILALLDEGVLTEEEKDIVRRGRNAKSGTIPKNTDVQTYRHSTAFEALIGYHFLVNNEKRVDELIGRSFAIIEREERALE", "soluble on expression in E. coli": "not soluble"}, {"sequence": "MMDLELPPPGLPSQQDMDLIDILWRQDIDLGVSREVFDFSQRRKEYELEKQKKLEKERQEQLQKEQEKAFFAQLQLDEETGEFLPIQPAQHIQSETSGSANYSQVAHIPKSDALYFDDCMQLLAQTFPFVDDNEVSSATFQSLVPDIPGHIESPVFIATNQAQSPETSVAQVAPVDLDGMQQDIEQVWEELLSIPELQCLNIENDKLVETTMVPSPEAKLTEVDNYHFYSSIPSMEKEVGNCSPHFLNAFEDSFSSILSTEDPNQLTVNSLNSDATVNTDFGDEFYSAFIAEPSISNSMPSPATLSHSLSELLNGPIDVSDLSLCKAFNQNHPESTAEFNDSDSGISLNTSPSVASPEHSVESSSYGDTLLGLSDSEVEELDSAPGSVKQNGPKTPVHSSGDMVQPLSPSQGQSTHVHDAQCENTPEKELPVSPGHRKTPFTKDKHSSRLEAHLTRDELRAKALHIPFPVEKIINLPVVDFNEMMSKEQFNEAQLALIRDIRRRGKNKVAAQNCRKRKLENIVELEQDLDHLKDEKEKLLKEKGENDKSLHLLKKQLSTLYLEVFSMLRDEDGKPYSPSEYSLQQTRDGNVFLVPKSKKPDVKKN", "soluble on expression in E. coli": "not soluble"}, {"sequence": "MMDPISIINKYYTEGTNQYHILVEHSRDVAALALRIVEIHPELQADRLFVEEAAMLHDIGIFLTDAESIACFGKEPYILHGYMGANILRKEGYPRHALVCERHTGSGLTSEDIAARQIALPPGIYTPQSIEEKIVCYADKFFSKTKLHRQKKLEDVRRSMLSYGADSLRRFDEMHALFKIPLG", "soluble on expression in E. coli": "soluble"}, {"sequence": "MMEGLDDGPDFLSEEDRGLKAINVDLQSDAALQVDISDALSERDRVNFTVHTKSSLPNFKQNEFSVVRQHEEFIWLHDSFVENEDYAGYIIPPAPPRPDFDASREKLQKLGEGEGSMTKEEFTKMKQELEAEYLAIFKKTVAMHEVFLCRVAAHPILRKDLNFHVFLEYNQDLSVRGKNKKEKLEDFFKNMVKSADGVIVSGVKDVDDFFEHERTFLLEYHNRVKDASAKSDRMTRSHKSAADDYNRIGSSLYALGTQDSTDICKFFLKVSELFDKTRKIEARVSADEDLKLSDLLKYYLRESQAAKDLLYRRSRSLVDYENANKALDKARAKNKDVLQAETSQQLCCQKFEKISESAKQELIDFKTRRVAAFRKNLVELAELELKHAKGNLQLLQNCLAVLNGDT", "soluble on expression in E. coli": "soluble"}, {"sequence": "MMFGRFTERAQKVLALSQEEAIRIGHNNIGTEHILLGLVREGEGIAAKALIALGLSPEKVQKEVEALIGRGTEASQTVHYTPRAKKVIELSMDEARKLGHSYVGTEHILLGLIREGEGVAARVLNNLGVSLNKARQQVLQLLGSNEASSGHQGGSSTNANTPTLDSLARDLTVVARENRLDPVIGRGKEIQRVIEVLSRRTKNNPVLIGEPGVGKTAIAEGLAQQIVNNEVPETLRDKRVMTLDMGTVVAGTKYRGEFEDRLKKVMDEIRQAGNIILFIDELHTLIGAGGAEGAIDASNILKPSLARGELQCIGATTLDEYRKYIEKDAALERRFQPIHVDEPSLDESTQILKGLRDRYEAHHRVSITDDAIDAAVKLSDRYITDRFLPDKAIDLIDEAASKVRLRSYTTPPNLKELEVKLEEIRKEKDAAVQSQEFEKAASLRDMEQRLREKLEDTKRQWKEQQGKENSEVTVEDIANVVSTWTRIPVSKLAQTETDKLLNLESILHDRVIGQDEAVVAVAKAVRRARAGLKDPKRPIGSFIFLGPTGVGKTELARALAESMFGDEDAMIRIDMSEYMEKHSTSRLVGSPPGYVGYEEGGQLTEKVRRKPYSVVLLDEVEKAHPDVFNILLQVLEDGRLTDSKGRTVDFRNTIVIMTSNVGAEALKRNKHLGFNVQDESRDYSDMKGKVMDELKKAFRPEFLNRIDEIIVFHMLEKKHIQEIVTLMVNQLVNRLKEQEIELHLTEGAISAIADKGFDREYGARPLRRAIQKHVEDRLSEELLKGAIEKGQKVIFDVEGESFVIHSAEKVK", "soluble on expression in E. coli": "soluble"}, {"sequence": "MMFNFYQFLYNLQNVSPFIDFSVLKQLTHTKMRENEPARFETRSFSQLIDHARSWKTEVRGMTTQGFTKISLMRAEKDRLNMYAISSVPGTNTQSIFSVTIPLELVEKAQVADRKFELKLKSGYNVDSYIRKTPPSAEFTLQCERQRSQVVTGISDYEIRNGKMILMAGDQLFRYNPLNEALAAIPIAVPDDQSSTEPMDISEGSITSGTKGCSNEAPQSSTVPPVTRIPIKKPTTSTEKPATAPPTNNFVSSAKVCPADSSLLAYVLNKQVYIEKNGKIIHRTSSNSKHITNGVPSYIVQEELERFEGIWWSESKTRLLYEHVNEEKVAESQFGVNGDPPVAPMKYPRAGTKNAYSTLRMVILENGKAYDVPLKDEVIYKHCPFYEYITRAGFFSDGTTVWVQVMSRDQAQCSLLLIPYTDFLLPEELGGSIKEDNLQLSTDLNMGVWDDKSHEETMEKPPRGKLRGTVQIHKARNDYWINTHNAIYPLKITDEEHPMYEFIYCLEKPNGSCLALISAELDQNGYCRHTEEKLLMAENFSINKSMGIVVDEVRELVYYVANESHPTEWNICVSHYRTGQHAQLTESGICFKSERANGKLALDLDHGFACYMTSVGSPAECRFYSFRWKENEVLPSTVYAANITVSGHPGQPDLHFDSPEMIEFQSKKTGLMHYAMILRPSNFDPYKKYPVFHYVYGGPGIQIVHNDFSWIQYIRFCRLGYVVVFIDNRGSAHRGIEFERHIHKKMGTVEVEDQVEGLQMLAERTGGFMDMSRVVVHGWSYGGYMALQMIAKHPNIYRAAIAGGAVSDWRLYDTAYTERYMGYPLEEHVYGASSITGLVEKLPDEPNRLMLVHGLMDENVHFAHLTHLVDECIKKGKWHELVIFPNERHGVRNNDASIYLDARMMYFAQQAIQGFGPTTAAPRQGPL", "soluble on expression in E. coli": "not soluble"}, {"sequence": "MMFNNNNWKLSVTDINLYENTVSLDGQPYPLSLAIKTLIPGYLSGLPSTSREAMELLEALAEAGVTIGNFFSNDLMTAYGRRQMNKRAEAERIAKEQRLQAERMREENMTDAEWQKELQRREQVKAERRTYGESLRSATHSAGRSRAAIVADLESGGNWMDSL", "soluble on expression in E. coli": "not soluble"}, {"sequence": "MMGFEKVEHLLPDTVLDIVDVIGLAATEQLVKAIGGARFKFGKGKVDTERLAILVEAIGEVKTHELLQVYGGEELYVPRCGKALIQLRNHRFYQEFVKLRDIDKKSGLMAMTKLCPKYGISSRTGYTIINEMSRPAAQQAALF", "soluble on expression in E. coli": "not soluble"}, {"sequence": "MMINFEAIIGIEVHVVLNTATKMFSPAPNQAQNATPNQFINAIDLGLPGTMPQVNEQAVQKALILADALNMQRVQPVLVFDRKHYFYQDLPKGFQITQQNFPIAQNGYVEIVENNKAQRIIIERFHLEEDTAKQHFVDGQILLDFNRCGAPLIEVVTAPVIKSAKQSKAYLQKLRQILIVNNISNAKLEDGSMRSDCNVSVRLKGQTAFGTKVEIKNINSLNNVEKAIDLEIARQVKALIKGEPVQQVTLTYDDKTNTNVFMRKKDNSVDYRYFIEPNIMSSNIDELLQKPNKAFNLTEFFTKLKEAGVNEQLNQLVVDDLTLFNAYTKINSVINSPQDTIRWLCIELMGQLNKLQKPLKDKTIDHLIILIQMVQKGTVNQKQAKQLIELMLDNGQDPQSLAKLHNLEQITDEKQLTQIIQQIFKENEGEILKNLDRVERIQKLIIGQVMQRTHNRANPQQVFIIVEKLLHDFSERAS", "soluble on expression in E. coli": "not soluble"}, {"sequence": "MMINRINLTDIRSFVLIARLGNFTKAAETLDVSRSHVSRQISSLEKQMGVTLLIRTTRTLRLTEAGKHFYHQCEQALHTIDQALLSAVDDVEKVQGEIKINCVGGYLGEVFLADIVNTFMQQYPDVSISLDFSSNRVDLIEEEFDIAFRMGSLEDSGFVAKKLLDIEMGTLASPKYLQQYGRPSHPKELQQHHCLTGSVRKWHFQSLVNKEHYDVSIKGNLQCKNGRVLVAGAIAGNGIIRVPLIYCQQELDDKKLVQVFEEWGIPTVDFSAIYHRDRYQPKRIRTFIDFVKQYSDSLFT", "soluble on expression in E. coli": "not soluble"}, {"sequence": "MMISLYSAATGMSAQQFKLDTIANNLANVDTTGYKKVRAEFQDLLYQYVKNAGTPTAATSSLPTGLYVGHGVRTAATTRIFTLGNFEQTGNALDLAIAGDGFFQIQLQDGRIAYTRDGSFKMDSEGRIVTSNGLLLVPEITIPENAVSINVSPDGIVSAELQDGTIQELGTITLVRFVNPSGLKSIGDNLYIATPASGDPIEGVPGQDGFGAIKQGFLEKSNVDVVREMVDMITAQRAYEFNSRVIQTADEMLRTATNVKR", "soluble on expression in E. coli": "soluble"}, {"sequence": "MMIVGCYCMNKLVFCLMGPTASGKTGLACELLTHFPFEIISVDSAMIYRDMNIGTAKPSIHELQRAPHYLIDIKDPVESYSAAQFCTDALSLCAEIIKRGNIPLLVGGTMMYFNALQKGLATLPEADEAVRKRLEEEALSQGWDFLYQKLSQLDPVTAARIHAHDTQRIQRALEVYYLTGSTLSTYLTGPHERPDYYFVNLALFPEQRSWLHERIAQRFDAMLSEGFIEEVQQLQAKWPIQINLPSMRCVGYRQILQHLAGHYDYETMREKGIAATRQLAKRQLTWLRHWEGALFYDSQNVGFNTDIIAKIREILDNTVSNLEHHHHHH", "soluble on expression in E. coli": "not soluble"}, {"sequence": "MMKDAVVITVGNEVLKGRTVNTNASFIGNFLTYQGYRVKLGLTVMDDLEDISWAFKTAMDRGDVIVSSGGLGPTFDDMTVEGFAKAIGSDNKLNQDALAMIEEKYKNIEITPERKKMAMMPEVCKPIRNPVGTAPGLLCSVGGKKVVILPGVPMEMQALLESMRDSLAIENSCYFDESINITGIMESTFAPYVERVMREVDGVYVKSHPKNIEVVNPSLEIEVSAYDVSQEAARKKVKDAIARIRAYAETILDSKDK", "soluble on expression in E. coli": "not soluble"}, {"sequence": "MMKFDNSYAHLPERFSAAVLPTPVKAPRLIAFNRTLAEELLLDVADLDDDRLAAIFSGNVVPQGAEPLAMAYAGHQFGGFVPQLGDGRAILLGEVIDVNGRRRDIQLKGSGPTPFSRRGDGRAALGPVLREYIVSEAMFALGIPATRALAAVLSGDRVQREVGLPGGVFTRVAASHIRVGTFQFFAAREDDEAIRSLADYVIDRHYPDAKNTENPYLALLRGIAERQCALIARWMMVGFIHGVMNTDNMAVSGETIDFGPCAFLDEYHPNKVFSSIDAQGRYAYNNQPGIAQWNIARLAECLLPLLDPEVEKAAELANAVLADFAAAFPQRWLTGMREKLGLTTEEEGDMDLIQSLLSLMQASEADFTLTFRRLSHAANGDAEPFRGMFIDIAGADAFLTRWRERAGREGISDSERSAAMLSINPAIIPRNHRIEELIEAAVEDGDFEPFHAMLTAIATPFEERPDNFVYMQPPMSHERVFRTFCGTLEHHHHHH", "soluble on expression in E. coli": "soluble"}]}]}
